Laboratory results from US8389231B2, “Assays, method and compositions that exploit a mycobacterial iron acquistion pathway in cells” (The Trustees of Princeton University, priority 2005, dated 2013).

Legend:
[1] = system: macrophages (THP-1 cell line); assay: MJ-mediated iron acquisition: conversion of MJ to Fe-MJ in macrophage culture, HPLC analysis; assay type: cell-based, human; details: for stimulation of MJ-mediated iron acquisition from macrophages (conversion of MJ to Fe-MJ): 10 μM transferrin species added to macrophages with MJ, 37° C.; for effect on basal recovery of Fe-MJ: 10 μM metal transferrin added to macrophages with MJ
Procedure: Cell cultures. The THP-1 cell line (a macrophage-like monocyte) was purchased from American Type Culture Collection (ATCC) and used for all protocols. The cells were cultured into PRMI1640 (ATCC) supplemented with 10% fetal bovine serum (ATCC), 2 mM L-glutamine and 0.02 mM penicillin-streptomycin, and maintained at a cell concentration between 2×10^5 and 1×10^6 cells/ml at 37° C. in a 5% CO2 air atmosphere by addition of fresh growth medium (as described above) twice per week. Either PRMI1640 or phenol-red-free PRMI1640 was used with the supply of 2 mM L-glutamine and 0.02 mM penicillin-streptomycin, but in the absence of 10% FBS, for the experiments with MJ.
HPLC analysis for Fe-MJ and MJ. Varian ProStar & PrepStar HPLC and a Waters Delta Pak 5μ C18-300 Åcolumn were used with 3:7 H2O:CH3CN as eluting solution under all conditions. The intensities of the peak with retention time 43 min at 460 nm were integrated and normalized to the amount of Fe-MJ. Macrophages (final concentration, 1×10^5 cells/ml) or 0.05 mM DMPC vesicles as controls were preincubated in RPMI 1640 medium at 37° C. for 4 h, followed by the addition of MJ (final concentration, 1.5 μM). The media were incubated for 24 h at various conditions, such as in the presence or absence of hTf, at varied temperatures or in the presence of different concentrations of desferrioxamine mesylate salt. Three aliquots (3×4 ml) of the medium were collected and lysed by dunces. Lipophilic components were extracted into 3.5 ml CHCl3 and the mixture was centrifuged at 2500 r.p.m for 8 min. The organic layer extraction 2.5 ml was subject to a stream of argon to vaporize CHCl3. The dried mixture was dissolved into 400 μl CH3CN, of which 200 μl solutions was injected into HPLC. The peak intensity of 100% conversion to Fe-MJ was obtained by incubating 1.5 μM Fe-MJ into the medium, following the same workup above.

[2] = Lipid-aqueous-phase partition coefficient using lipid vesicles as model membrane; assay type: physicochemical
macrophage cells = assay: Cell-aqueous-phase distributions of MJ and Fe-MJ; assay type: in vitro ADME, human
Procedure: Cell-aqueous-phase distributions of MJ and Fe-MJ. After the conversion from MJ to Fe-MJ, aqueous-phase Fe-MJ was obtained by separating the supernatant medium from macrophage cells via the centrifugation with 1500 r.p.m for 5 min. The aliquot of recovered supernatant was subject to CHCl3 extract and HPLC analysis as described above. For measurements of the cell/aqueous-phase partition coefficient of Fe-MJ, Fe-MJ 1.0 μM was incubated into RPMI 1640 medium at 37° C. for half an hour in the presence of various concentrations of macrophage cells. Then the supernatant was separated and analyzed as described above. For the partition coefficient of MJ, prior to the HPLC analysis, a 10-fold ferric citrate excess was added into a MJ-CH3CN solution, followed by a two-hr incubation for the complete conversion from MJ to Fe-MJ. Aqueous-phase and total MJ and Fe-MJ, Ctotal and Cw, respectively, were used to calculate Cv/Cw according to the relationship: Cv/Cw=(Ctotal−Cw)/Cw. The partition coefficient, K was defined according to the following equation: Cv/Cw=K×[Cell], in which [Cell] is the concentration of macrophage cells (cells/ml) and Cv is the amount of lipid-phase MJ or Fe-MJ.

## Co-Tf: Cobalt(III) transferrin
[1]
  stimulation of MJ-mediated iron acquisition from macrophages (conversion of MJ to Fe-MJ): more effective agonist than hTf

## Ga(III) transferrin: Ga(III) transferrin complex prepared from apo transferrin
[1]
  effect on basal recovery of Fe-MJ: greatly suppressed
  stimulation of MJ-mediated iron acquisition from macrophages (conversion of MJ to Fe-MJ): failed to stimulate

## ferric mycobactin J [Fe-MJ]
[2]
  lipid-aqueous-phase partition coefficient Kx: 3×10^5
Macrophage cells; after 24-hr incubation of MJ in macrophage culture (1×10^5 cells/ml), presence or absence of hTf
  Fe-MJ from the aqueous phase as share of total recovered Fe-MJ: 80%
Macrophage cells; macrophage cells, RPMI 1640, 37° C.
  cell-aqueous-phase partition coefficient K (Cv/Cw=K×[Cell]): 9.8×10^−7 ml/cell

## Al(III) transferrin: Al(III) transferrin complex prepared from apo transferrin, Al(NO3)3 and nitrilotriacetic acid
[1]
  effect on basal recovery of Fe-MJ: greatly suppressed
  stimulation of MJ-mediated iron acquisition from macrophages (conversion of MJ to Fe-MJ): failed to stimulate

## hTf: fully saturated holo-transferrin (human transferrin), obtained from Sigma
[1]; 10 μM hTf, low temperatures (4° C. level similar to absence of hTf)
  hTf-triggered conversion at low temperatures: significantly suppressed
[1]
  stimulation of MJ-mediated iron acquisition from macrophages (conversion of MJ to Fe-MJ): nearly doubled
